Where “and” joins values, the source holds several entries; their conditions need not be identical. Identical values can stand only once. Like-named read-outs stand apart in the source and are kept apart here.
How the values were obtained:
Experiment in all cases: competition, purified HLA
HLA-A*3002 (human) = biological target: HLA-A*3002 (human)
HLA-A*0101 (human) = biological target: HLA-A*0101 (human)
HLA-A*2902 (human) = biological target: HLA-A*2902 (human)
[1] = remark: other sources report otherwise

| Binder | IC50 (HLA-A*3002 (human)) | IC50 (HLA-A*2902 (human)) | IC50 (HLA-A*0101 (human)) | also measured |
| --- | --- | --- | --- | --- |
| AYSSWMYSY (modifications not checked) | 0.0049 µM |  |  |  |
| TLEKLTNTGLY (modifications not checked) |  |  |  | IC50 (HLA-A*0101 (human); [1]): 0.077 µM; IC50 (HLA-A*2902 (human); [1]): 0.991 µM |
| RSDSVGPGPGY (modifications not checked) |  | 31.2 µM |  |  |
| PTLKEYVLDLY (modifications not checked) |  | 0.805 µM |  |  |
| RFLSKISEY (modifications not checked) |  |  | > 40.3 µM |  |
| RWGLLLALL (modifications not checked) | 0.3 µM | 61.3 µM |  |  |
| WFHISCLTF (modifications not checked) |  |  |  | IC50 (HLA-A*0101 (human); [1]): 85.3 µM; IC50 (HLA-A*3002 (human); [1]): 75.1 µM; IC50 (HLA-A*2902 (human); [1]): 0.095 µM |
| KYTSFPWL (modifications not checked) |  | > 172 µM |  |  |
| AADAAAAKY (modifications not checked) |  |  | 0.02 µM |  |
| EYRHYNYSLY (modifications not checked) |  | 0.956 µM | 111 µM |  |
| KTLYQSNPY (modifications not checked) |  |  | 6.91 µM |  |
| RVLPPNWKY (modifications not checked) | 0.003 µM |  |  |  |
| YTGPGPGVY (modifications not checked) | 0.0064 µM | 2.02 µM |  |  |
| RISGVDRYY (modifications not checked) | 0.003 µM |  |  |  |
| AYGPGPGKF (modifications not checked) |  | 44.9 µM |  |  |
| TQDGPGPGY (modifications not checked) | 0.541 µM | 37.1 µM |  |  |

| Binder | IC50 (HLA-A*3002 (human)) | IC50 (HLA-A*2902 (human)) | IC50 (HLA-A*0101 (human)) | also measured |
| --- | --- | --- | --- | --- |
| RSDGPGPGVLY (modifications not checked) |  | 13.2 µM |  |  |
| IYGPGPGLIF (modifications not checked) | 6.84 µM |  |  |  |
| FTDLRIVY (modifications not checked) | 8.06 µM | 0.813 µM | 0.026 µM |  |
| TQDLVQEKY (modifications not checked) |  | 33.3 µM |  |  |
| RQAKQHTCY (modifications not checked) |  | 155 µM | > 135 µM |  |
| ALFQEYQCY (modifications not checked) |  |  |  | IC50 (HLA-A*0101 (human); [1]): > 42 µM |
| IMVLSFLF (modifications not checked) | 30 µM |  |  |  |
| RQDILDLWVY (modifications not checked) | 0.095 µM |  | 9 µM |  |
| TQGPGPGKY (modifications not checked) |  | 36.7 µM |  |  |
| EVDGPGPGY (modifications not checked) | 5.77 µM | 25.8 µM |  |  |
| ISEYRHYQY (modifications not checked) |  |  | 0.04 µM |  |
| ATSNYYIVTY (modifications not checked) |  |  | 0.428 µM |  |
| FTDLTIVY (modifications not checked) | 39 µM |  | 0.016 µM and 0.034 µM |  |
| YTAGPGPGY (modifications not checked) |  |  | 0.007 µM |  |
| TLEKITNTELY (modifications not checked) |  | 8.4 µM |  |  |
| EVGPGPGLY (modifications not checked) |  |  | 0.05 µM |  |

From US20060079453A1
